Measured values published in paper PMC5942779, “Identification of a peptide inhibitor for the histone methyltransferase WHSC1” (PLoS ONE, 2018).
Square brackets hold non-standard residues; d marks the D form. Nle = CCCC[C@H](N)C(=O)O

Assays:
Assay in all cases: cell-based or functional assay
[1] = target: SMYD2 (UniProt Q9NRG4 1-433)
[2] = target: EZH2 (UniProt Q15910 1-746)
[3] = target: SETDB1 (UniProt Q15047 1-1291)
[4] = target: PRMT6 (UniProt Q96LA8 1-375)
[5] = target: EZH1 (UniProt Q92800 1-747)
[6] = target: G9a (UniProt Q96KQ7 1-1210)

Measured: Biochemical IC50 (enzymatic inhibition, panel of HMT enzymes)

Chain of G9a (Q96KQ7 whole entry): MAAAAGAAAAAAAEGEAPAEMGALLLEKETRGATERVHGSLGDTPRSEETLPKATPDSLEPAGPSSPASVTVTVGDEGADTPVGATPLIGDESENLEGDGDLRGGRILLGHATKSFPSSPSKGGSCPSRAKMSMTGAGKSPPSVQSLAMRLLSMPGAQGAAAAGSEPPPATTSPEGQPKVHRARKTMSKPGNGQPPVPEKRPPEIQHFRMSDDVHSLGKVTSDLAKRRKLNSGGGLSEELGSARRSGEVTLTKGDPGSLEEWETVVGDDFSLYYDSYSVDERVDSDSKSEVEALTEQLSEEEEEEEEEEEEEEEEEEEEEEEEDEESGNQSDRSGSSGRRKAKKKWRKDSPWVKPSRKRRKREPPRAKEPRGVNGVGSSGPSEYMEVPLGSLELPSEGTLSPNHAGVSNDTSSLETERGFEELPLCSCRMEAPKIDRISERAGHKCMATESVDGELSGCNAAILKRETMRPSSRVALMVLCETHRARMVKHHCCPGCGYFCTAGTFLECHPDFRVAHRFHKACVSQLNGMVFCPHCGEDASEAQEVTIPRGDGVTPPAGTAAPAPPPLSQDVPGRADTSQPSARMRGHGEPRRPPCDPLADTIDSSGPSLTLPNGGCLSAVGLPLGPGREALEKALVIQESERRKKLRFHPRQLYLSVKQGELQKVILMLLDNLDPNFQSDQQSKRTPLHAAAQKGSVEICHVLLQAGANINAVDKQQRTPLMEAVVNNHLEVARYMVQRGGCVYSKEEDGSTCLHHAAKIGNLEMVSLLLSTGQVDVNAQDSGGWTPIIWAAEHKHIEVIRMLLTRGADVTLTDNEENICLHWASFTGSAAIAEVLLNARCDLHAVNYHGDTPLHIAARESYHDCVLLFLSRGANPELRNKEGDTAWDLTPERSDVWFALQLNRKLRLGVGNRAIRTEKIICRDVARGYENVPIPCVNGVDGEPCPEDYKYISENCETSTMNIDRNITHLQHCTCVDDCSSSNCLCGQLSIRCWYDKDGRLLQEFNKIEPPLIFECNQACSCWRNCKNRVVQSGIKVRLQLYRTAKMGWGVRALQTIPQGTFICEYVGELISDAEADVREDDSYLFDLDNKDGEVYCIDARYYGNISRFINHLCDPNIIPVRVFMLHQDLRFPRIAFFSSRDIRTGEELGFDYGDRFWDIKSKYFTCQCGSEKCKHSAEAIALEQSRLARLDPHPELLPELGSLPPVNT
Chain of EZH1 (Q92800 whole entry): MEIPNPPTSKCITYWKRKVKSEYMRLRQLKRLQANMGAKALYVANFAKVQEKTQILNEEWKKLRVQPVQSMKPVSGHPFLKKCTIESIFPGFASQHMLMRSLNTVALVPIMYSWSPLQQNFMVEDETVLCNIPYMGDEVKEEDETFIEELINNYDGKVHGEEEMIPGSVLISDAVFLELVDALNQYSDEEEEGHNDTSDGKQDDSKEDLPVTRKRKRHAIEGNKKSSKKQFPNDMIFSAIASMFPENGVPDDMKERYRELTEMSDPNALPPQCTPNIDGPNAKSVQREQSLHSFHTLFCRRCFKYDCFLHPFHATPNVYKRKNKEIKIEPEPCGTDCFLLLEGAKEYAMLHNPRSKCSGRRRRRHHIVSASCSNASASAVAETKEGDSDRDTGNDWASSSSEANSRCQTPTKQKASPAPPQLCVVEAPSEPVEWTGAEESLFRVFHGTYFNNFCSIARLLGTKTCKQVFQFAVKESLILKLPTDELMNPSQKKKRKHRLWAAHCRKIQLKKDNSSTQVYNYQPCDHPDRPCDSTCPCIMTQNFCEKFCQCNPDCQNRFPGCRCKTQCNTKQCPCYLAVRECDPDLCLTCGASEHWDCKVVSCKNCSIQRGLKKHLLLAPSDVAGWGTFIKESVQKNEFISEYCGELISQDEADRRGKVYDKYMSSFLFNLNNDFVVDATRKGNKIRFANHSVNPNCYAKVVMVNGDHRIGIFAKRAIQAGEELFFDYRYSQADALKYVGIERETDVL
Chain of SMYD2 (Q9NRG4 whole entry): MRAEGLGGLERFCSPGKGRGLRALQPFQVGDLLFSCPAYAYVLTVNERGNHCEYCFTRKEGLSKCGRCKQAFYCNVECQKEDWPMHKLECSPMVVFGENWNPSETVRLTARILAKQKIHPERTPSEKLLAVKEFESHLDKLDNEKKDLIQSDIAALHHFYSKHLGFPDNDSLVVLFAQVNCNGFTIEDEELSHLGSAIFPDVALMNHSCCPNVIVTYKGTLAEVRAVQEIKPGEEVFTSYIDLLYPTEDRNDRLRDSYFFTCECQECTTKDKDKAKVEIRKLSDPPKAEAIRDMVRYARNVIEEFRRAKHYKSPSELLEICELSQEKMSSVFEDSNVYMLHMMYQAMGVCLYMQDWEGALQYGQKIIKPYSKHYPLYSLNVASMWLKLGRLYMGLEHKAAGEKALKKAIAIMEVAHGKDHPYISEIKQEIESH
Chain of EZH2 (Q15910 whole entry): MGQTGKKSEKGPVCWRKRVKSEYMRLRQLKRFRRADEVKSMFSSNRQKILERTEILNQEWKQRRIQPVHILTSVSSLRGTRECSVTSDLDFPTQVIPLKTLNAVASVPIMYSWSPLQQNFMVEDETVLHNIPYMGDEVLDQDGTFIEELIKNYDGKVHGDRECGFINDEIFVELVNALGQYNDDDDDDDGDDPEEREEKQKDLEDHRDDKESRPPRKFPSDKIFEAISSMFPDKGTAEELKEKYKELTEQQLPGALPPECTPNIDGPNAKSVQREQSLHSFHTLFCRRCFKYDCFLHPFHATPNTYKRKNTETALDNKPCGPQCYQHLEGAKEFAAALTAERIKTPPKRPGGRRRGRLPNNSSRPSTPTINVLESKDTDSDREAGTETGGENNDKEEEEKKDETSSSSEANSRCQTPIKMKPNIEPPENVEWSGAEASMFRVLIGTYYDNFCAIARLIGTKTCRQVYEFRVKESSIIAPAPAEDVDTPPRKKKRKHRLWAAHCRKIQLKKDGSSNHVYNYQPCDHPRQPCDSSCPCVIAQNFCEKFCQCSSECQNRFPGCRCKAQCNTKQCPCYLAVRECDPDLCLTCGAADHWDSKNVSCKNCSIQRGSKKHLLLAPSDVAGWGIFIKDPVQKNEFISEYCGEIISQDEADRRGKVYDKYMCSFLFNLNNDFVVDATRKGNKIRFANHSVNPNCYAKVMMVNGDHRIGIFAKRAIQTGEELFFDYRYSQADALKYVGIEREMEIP
Chain of PRMT6 (Q96LA8 whole entry): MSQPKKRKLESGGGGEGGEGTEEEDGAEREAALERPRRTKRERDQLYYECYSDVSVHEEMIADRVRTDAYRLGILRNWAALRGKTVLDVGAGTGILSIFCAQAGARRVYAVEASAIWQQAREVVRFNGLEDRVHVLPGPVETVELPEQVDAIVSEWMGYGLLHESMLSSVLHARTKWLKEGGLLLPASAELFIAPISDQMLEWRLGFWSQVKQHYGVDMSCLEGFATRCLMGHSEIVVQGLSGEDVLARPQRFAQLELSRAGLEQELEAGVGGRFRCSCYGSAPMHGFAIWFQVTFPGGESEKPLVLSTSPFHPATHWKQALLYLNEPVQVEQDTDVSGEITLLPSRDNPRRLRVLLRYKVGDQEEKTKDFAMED

Ac-GV[Nle]RI-NH2 [PTD2]
> 200 µM: all assays above
